Laboratory results reported in article PMC7615647, “Visualization of direct and diffusion-assisted RAD51 nucleation by full-length human BRCA2 protein” (Molecular cell, 2023).

B1: RAD51 C319S labelled with Alexa Fluor 647 C2 maleimide (natural protein, human, UniProt Q06609 1-339, looked up)
chain: MAMQMQLEANADTSVEEESFGPQPISRLEQCGINANDVKKLEEAGFHTVEAVAYAPKKELINIKGISEAKADKILAEAAKLVPMGFTTATEFHQRRSEIIQITTGSKELDKLLQGGIETGSITEMFGEFRTGKTQICHTLAVTCQLPIDRGGGEGKAMYIDTEGTFRPERLLAVAERYGLSGSDVLDNVAYARAFNTDHQTQLLYQASAMMVESRYALLIVDSATALYRTDYSGRGELSARQMHLARFLRMLLRLADEFGVAVVITNQVVAQVDGAAMFAADPKKPIGGNIIAHASTTRLYLRKGRGETRICKIYDSPSLPEAEAMFAINADGVGDAKD
modifications: Alexa Fluor 647 C2 maleimide (labelled residue not stated; protein to dye ratio 0.9-1.0)
notes: RAD51 recombinase, human, C319S variant; also called RAD51(A647); RAD-51(A647); source: E. coli BLR(DE3)pLysS (pET11c-RAD51 C319S), purified (ammonium sulphate, Q Sepharose, Heparin, Mono Q), then labelled

Legend:
[1] = target: BRCA2-eGFP;RAD51(A647) (Homo sapiens;Homo sapiens) (UniProt P51587); assay: single-molecule optical tweezers/confocal; details: EMSA: 4 nM Cy5-DNA, 20 mM HEPES pH 7.5, 1 mM MgCl2, 1 mM TCEP, 100 mM KCl, 24 C, 5 min, single-molecule (Fig 1): 100 mM NaCl, 2 mM MgCl2, 1 mM CaCl2, 2 mM ATP …
[2] = tested on: RAD51(A647) (Homo sapiens); assay: single-molecule optical tweezers/confocal; details: biotinylated hairpin end caps, EMSA: 4 nM Cy5-DNA, 20 mM HEPES pH 7.5, 1 mM MgCl2, 1 mM TCEP, 100 mM KCl, 24 C, 5 min, single-molecule (Fig 1): 100 mM NaCl, 2 mM MgCl2, 1 mM CaCl2, 2 mM ATP …
[3] = target: T1, full-length human BRCA2-eGFP (human, UniProt P51587 1-3418); assay: single-molecule confocal fluorescence imaging with dual optical trapping (C-trap); 5 nM BRCA2-eGFP and 25 nM RAD51(A647) together in solution; order of their arrival on gapped lambda DNA held between beads; 50 mM Tris-HCl pH 7.5, 100 mM NaCl, 2 mM MgCl2, 1 mM CaCl2, 2 mM ATP, 0.2 mg/ml BSA; with or without 1.25 nM RPA; details: both partners purified
T1 construct: breast cancer susceptibility protein 2 (BRCA2), human, full length, 3,418 amino acids; Sf9 codon-optimised gene; Order on the chain: BRCA2, (alanine)8 linker, monomeric eGFP A207K (so in the source), Flag3; Eluted from FLAG resin with Flag3 peptide; no tag cleavage is described; also called BRCA2 fl; fl BRCA2; source: Sf9 insect cells, baculovirus (pFB-BRCA2-eGFP), purified (FLAG M2 agarose, SP …)

[4] = target: T2, BRCA2-N (residues 1-2142)-eGFP (human, UniProt P51587 1-2142); assay: single-molecule confocal fluorescence imaging with dual optical trapping (C-trap); BRCA2-eGFP (full length or truncation) and 20 nM RAD51(A647) moving together on lambda dsDNA held at 10 pN; 50 mM Tris-HCl pH 7.5, 50 mM NaCl or as indicated (25-150 mM), 2 mM MgCl2, 2 mM ATP, 0.2 mg/ml BSA; details: both partners purified
T2 construct: BRCA2, human, residues 1-2142 (N-DBD and BRC repeats 1-8; lacks C-DBD, TR2 and exC-DBR); also called N-DBD-BRC1-8 truncated protein; source: High Five insect cells, baculovirus (pFBDM-BRCA2-N, MultiBac), purified (StrepTrap, Heparin); not shown: eGFP, C-terminal, kept

[5] = target: T3, BRCA2-C2 (residues 966-3418)-eGFP (human, UniProt P51587 966-3418); assay: as above; details: both partners purified
T3 construct: BRCA2, human, residues 966-3418 (BRC repeats 1-8, C-DBD, TR2, full exC-DBR; lacks N-DBD); source: High Five insect cells, baculovirus (pFBDM-BRCA2-C2, MultiBac), purified (StrepTrap, Heparin); not shown: eGFP, C-terminal, kept

[6] = target: B1; assay: as above; details: both partners purified
BRCA2-eGFP = BRCA2-eGFP (Homo sapiens, UniProt P51587 1-3418); assay: EMSA; retains high ssDNA affinity; EMSA: 4 nM Cy5-DNA, 20 mM HEPES pH 7.5, 1 mM MgCl2, 1 mM TCEP, 100 mM KCl, 24 C, 5 min; single-molecule (Fig 1): 100 mM NaCl, 2 mM MgCl2, 1 mM CaCl2, 2 mM ATP; details: protein: recombinant; tags: C-terminal Ala8 linker, eGFP(A207K), Flag3; label: 5'-Cy5 on strand 1; 42 bp duplex, 3' overhang on strand 1

Chain of BRCA2-eGFP;RAD51(A647) (Homo sapiens;Homo sapiens) (P51587 whole entry, looked up): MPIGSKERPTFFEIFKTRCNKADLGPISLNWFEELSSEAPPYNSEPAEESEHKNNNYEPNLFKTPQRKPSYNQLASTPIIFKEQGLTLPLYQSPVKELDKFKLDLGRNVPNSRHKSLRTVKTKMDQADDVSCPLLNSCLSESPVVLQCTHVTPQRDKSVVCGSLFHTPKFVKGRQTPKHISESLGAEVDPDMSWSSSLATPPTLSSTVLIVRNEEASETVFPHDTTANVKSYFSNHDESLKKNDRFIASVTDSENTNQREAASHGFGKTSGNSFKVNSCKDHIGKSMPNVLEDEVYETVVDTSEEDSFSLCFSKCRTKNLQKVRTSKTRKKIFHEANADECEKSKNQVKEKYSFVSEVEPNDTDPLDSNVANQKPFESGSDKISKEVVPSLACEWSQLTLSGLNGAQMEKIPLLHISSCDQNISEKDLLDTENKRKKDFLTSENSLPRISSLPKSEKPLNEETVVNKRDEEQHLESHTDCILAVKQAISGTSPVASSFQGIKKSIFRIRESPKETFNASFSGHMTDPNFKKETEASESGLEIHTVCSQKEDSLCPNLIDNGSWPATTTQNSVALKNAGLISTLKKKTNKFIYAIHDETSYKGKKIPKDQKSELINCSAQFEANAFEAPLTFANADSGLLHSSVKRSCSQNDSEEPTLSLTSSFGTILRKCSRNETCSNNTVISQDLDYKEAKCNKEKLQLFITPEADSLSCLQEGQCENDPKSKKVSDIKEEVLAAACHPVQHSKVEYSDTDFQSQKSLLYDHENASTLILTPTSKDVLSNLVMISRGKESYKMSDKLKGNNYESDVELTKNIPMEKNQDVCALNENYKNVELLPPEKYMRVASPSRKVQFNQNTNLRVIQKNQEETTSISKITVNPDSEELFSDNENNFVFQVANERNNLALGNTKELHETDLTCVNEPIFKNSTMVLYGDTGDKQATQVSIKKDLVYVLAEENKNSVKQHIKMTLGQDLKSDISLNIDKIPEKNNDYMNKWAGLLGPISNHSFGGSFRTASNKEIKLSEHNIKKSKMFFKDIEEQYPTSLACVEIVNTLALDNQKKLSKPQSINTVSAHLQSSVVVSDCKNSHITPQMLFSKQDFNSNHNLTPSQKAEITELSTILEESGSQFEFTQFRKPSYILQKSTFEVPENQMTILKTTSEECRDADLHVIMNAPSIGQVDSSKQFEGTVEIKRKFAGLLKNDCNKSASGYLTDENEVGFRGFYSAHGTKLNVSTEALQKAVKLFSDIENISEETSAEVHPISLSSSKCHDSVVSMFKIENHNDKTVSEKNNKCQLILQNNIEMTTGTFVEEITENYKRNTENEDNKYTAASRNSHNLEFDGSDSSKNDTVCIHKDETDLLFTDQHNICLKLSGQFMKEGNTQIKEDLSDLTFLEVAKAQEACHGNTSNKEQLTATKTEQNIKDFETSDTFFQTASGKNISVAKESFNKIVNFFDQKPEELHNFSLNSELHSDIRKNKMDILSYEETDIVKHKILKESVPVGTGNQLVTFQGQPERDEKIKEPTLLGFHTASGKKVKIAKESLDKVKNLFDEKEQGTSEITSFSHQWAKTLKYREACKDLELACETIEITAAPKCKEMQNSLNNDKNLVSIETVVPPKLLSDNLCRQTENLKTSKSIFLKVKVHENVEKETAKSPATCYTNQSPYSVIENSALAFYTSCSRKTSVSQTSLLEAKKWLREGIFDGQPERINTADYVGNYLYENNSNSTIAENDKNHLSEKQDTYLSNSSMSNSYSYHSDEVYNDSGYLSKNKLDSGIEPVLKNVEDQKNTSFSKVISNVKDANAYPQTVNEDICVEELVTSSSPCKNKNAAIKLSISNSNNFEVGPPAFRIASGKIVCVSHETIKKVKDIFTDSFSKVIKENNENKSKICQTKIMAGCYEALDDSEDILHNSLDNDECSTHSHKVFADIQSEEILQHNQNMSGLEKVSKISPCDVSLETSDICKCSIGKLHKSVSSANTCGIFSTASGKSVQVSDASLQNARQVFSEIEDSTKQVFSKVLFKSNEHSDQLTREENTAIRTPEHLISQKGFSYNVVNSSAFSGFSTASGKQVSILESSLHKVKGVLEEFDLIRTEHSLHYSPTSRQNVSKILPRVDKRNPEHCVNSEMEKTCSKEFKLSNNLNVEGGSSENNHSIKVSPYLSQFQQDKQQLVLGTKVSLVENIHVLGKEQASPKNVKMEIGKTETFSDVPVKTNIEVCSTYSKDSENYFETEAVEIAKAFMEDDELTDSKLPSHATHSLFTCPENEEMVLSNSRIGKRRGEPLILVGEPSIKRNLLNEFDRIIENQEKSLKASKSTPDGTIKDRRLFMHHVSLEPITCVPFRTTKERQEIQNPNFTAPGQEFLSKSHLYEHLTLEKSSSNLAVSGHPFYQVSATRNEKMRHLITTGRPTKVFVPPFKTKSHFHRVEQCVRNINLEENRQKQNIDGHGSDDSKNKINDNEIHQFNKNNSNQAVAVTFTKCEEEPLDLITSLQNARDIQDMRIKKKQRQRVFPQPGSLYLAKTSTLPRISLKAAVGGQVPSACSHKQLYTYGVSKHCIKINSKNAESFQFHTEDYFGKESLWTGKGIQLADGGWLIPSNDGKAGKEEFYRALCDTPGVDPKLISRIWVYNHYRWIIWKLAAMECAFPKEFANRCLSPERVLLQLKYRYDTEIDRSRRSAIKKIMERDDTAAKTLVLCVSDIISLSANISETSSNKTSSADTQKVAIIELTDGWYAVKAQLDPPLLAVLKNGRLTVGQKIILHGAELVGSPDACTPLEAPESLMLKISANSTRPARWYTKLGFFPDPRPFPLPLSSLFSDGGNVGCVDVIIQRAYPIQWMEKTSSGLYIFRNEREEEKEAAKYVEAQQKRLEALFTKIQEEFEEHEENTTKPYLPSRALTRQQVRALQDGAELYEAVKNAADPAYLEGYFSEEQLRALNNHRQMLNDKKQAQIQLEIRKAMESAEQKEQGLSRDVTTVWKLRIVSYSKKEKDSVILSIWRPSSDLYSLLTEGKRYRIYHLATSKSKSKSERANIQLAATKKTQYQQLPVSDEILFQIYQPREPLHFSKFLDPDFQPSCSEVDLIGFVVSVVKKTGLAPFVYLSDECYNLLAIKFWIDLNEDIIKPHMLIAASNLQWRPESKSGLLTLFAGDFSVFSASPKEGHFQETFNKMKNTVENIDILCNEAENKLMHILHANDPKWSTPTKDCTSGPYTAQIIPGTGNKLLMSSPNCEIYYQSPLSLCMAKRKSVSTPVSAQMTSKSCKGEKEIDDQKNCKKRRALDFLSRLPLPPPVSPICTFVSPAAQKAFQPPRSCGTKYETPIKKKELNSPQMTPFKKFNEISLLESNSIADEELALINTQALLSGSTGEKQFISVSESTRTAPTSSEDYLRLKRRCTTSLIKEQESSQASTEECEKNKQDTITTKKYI

lambda dsDNA (including dsDNA arms of gDNA)
binding signal (um2 s-1 (1D diffusion coefficient)) ([1]; sliding on dsDNA, biotinylated ends): 0.04

gapped lambda DNA (gDNA), ssDNA gap
binding signal (fold nucleation rate vs RAD51 alone) ([1]; 5 nM BRCA2-eGFP, 25 nM RAD51, 2 mM ATP, no RPA, biotinylated hairpin end caps): 2.7 | binding signal (s (RAD51 cluster dwell time)) ([1]; with BRCA2-eGFP, biotinylated hairpin end caps): 102 | binding signal (nuclei knt-1 min-1 (nucleation rate)) ([2]; 1.25 nM RPA, 2 mM ATP): 0.003 | binding signal (nuclei knt-1 min-1 (nucleation rate)) ([2]; 25 nM RAD51, 2 mM ATP, no RPA): 0.277 | binding signal (s (cluster dwell time)) ([2]; no BRCA2): 27.2

B1
binding result [3]: binds | binding result [4]: binds | binding result [5]: binds

B2: BRCA2-C (residues 966-1596, 2477-3194, 3265-3330)-eGFP (domain or fragment, human, UniProt P51587 966-1596, looked up)
chain: TLGQDLKSDISLNIDKIPEKNNDYMNKWAGLLGPISNHSFGGSFRTASNKEIKLSEHNIKKSKMFFKDIEEQYPTSLACVEIVNTLALDNQKKLSKPQSINTVSAHLQSSVVVSDCKNSHITPQMLFSKQDFNSNHNLTPSQKAEITELSTILEESGSQFEFTQFRKPSYILQKSTFEVPENQMTILKTTSEECRDADLHVIMNAPSIGQVDSSKQFEGTVEIKRKFAGLLKNDCNKSASGYLTDENEVGFRGFYSAHGTKLNVSTEALQKAVKLFSDIENISEETSAEVHPISLSSSKCHDSVVSMFKIENHNDKTVSEKNNKCQLILQNNIEMTTGTFVEEITENYKRNTENEDNKYTAASRNSHNLEFDGSDSSKNDTVCIHKDETDLLFTDQHNICLKLSGQFMKEGNTQIKEDLSDLTFLEVAKAQEACHGNTSNKEQLTATKTEQNIKDFETSDTFFQTASGKNISVAKESFNKIVNFFDQKPEELHNFSLNSELHSDIRKNKMDILSYEETDIVKHKILKESVPVGTGNQLVTFQGQPERDEKIKEPTLLGFHTASGKKVKIAKESLDKVKNLFDEKEQGTSEITSFSHQWAKTLKYREACKDLELACETIEITAAPKCKEMQNPLDLITSLQNARDIQDMRIKKKQRQRVFPQPGSLYLAKTSTLPRISLKAAVGGQVPSACSHKQLYTYGVSKHCIKINSKNAESFQFHTEDYFGKESLWTGKGIQLADGGWLIPSNDGKAGKEEFYRALCDTPGVDPKLISRIWVYNHYRWIIWKLAAMECAFPKEFANRCLSPERVLLQLKYRYDTEIDRSRRSAIKKIMERDDTAAKTLVLCVSDIISLSANISETSSNKTSSADTQKVAIIELTDGWYAVKAQLDPPLLAVLKNGRLTVGQKIILHGAELVGSPDACTPLEAPESLMLKISANSTRPARWYTKLGFFPDPRPFPLPLSSLFSDGGNVGCVDVIIQRAYPIQWMEKTSSGLYIFRNEREEEKEAAKYVEAQQKRLEALFTKIQEEFEEHEENTTKPYLPSRALTRQQVRALQDGAELYEAVKNAADPAYLEGYFSEEQLRALNNHRQMLNDKKQAQIQLEIRKAMESAEQKEQGLSRDVTTVWKLRIVSYSKKEKDSVILSIWRPSSDLYSLLTEGKRYRIYHLATSKSKSKSERANIQLAATKKTQYQQLPVSDEILFQIYQPREPLHFSKFLDPDFQPSCSEVDLIGFVVSVVKKTGLAPFVYLSDECYNLLAIKFWIDLNEDIIKPHMLIAASNLQWRPESKSGLLTLFAGDFSVFSASPKEGHFQETFNKMKNTVENIDILCNEAENKLMHILHANDPKWSTPCKKRRALDFLSRLPLPPPVSPICTFVSPAAQKAFQPPRSCGTKYETPIKKKELNSPQMTPFKKFNE
notes: BRCA2, human, residues 966-1596 (BRC repeats 1-4); BRCA2, human, residues 2477-3194 (C-DBD); BRCA2, human, residues 3265-3330 (TR2); No linkers between the three stretches are stated; source: High Five insect cells, baculovirus (pFBDM-BRCA2-C, MultiBac), purified (StrepTrap, Heparin); not shown: eGFP, C-terminal, kept
binding result [6]: binds

B3: 167mer 3' tailed DNA (mixed)
DNA 1: CTGCTTTATCAAGATAATTTTTCGACTCATCAGAAATATCCGTTTCCTATATTTATTCCTATTATGTTTTATTCATTTACTTATTCTTTATGTTCATTTTTTATATCCTTTACTTTATTTTCTCTGTTTATTCATTTACTTATTTTGTATTATCCTTATCTTATTTA
DNA 2: CGGATATTTCTGATGAGTCGAAAAATTATCTTGATAAAGCAG
binding result (BRCA2-eGFP): binds
